Assay results: publication PMC10552758, “Identification and characterization of a novel β-lactamase gene, blaAMZ–1, from Achromobacter mucicolens” (Frontiers in Microbiology, 2023)

Columns and labels:
AMZ-1 = molecular target: T1, AMZ-1 (Achromobacter mucicolens, UniProt Z9OND0BR39); assay: nitrocefin hydrolysis, UV-VIS spectrophotometry; assay type: biochemical
T1 construct: ORF without signal peptide (cleavage 26/27) in pColdI, E. coli BL21(DE3); His-tag removed with enterokinase

[1] = test system: CC(=O)OCC1=C(C(=O)O)N2C(=O)[C@@H](NC(=O)Cc3cccs3)[C@H]2SC1; assay: UV-VIS hydrolysis, initial rates, Michaelis-Menten fit; assay type: biochemical, Achromobacter mucicolens; conditions: 10 mM phosphate pH 7.0, 37°C
Excerpt: (§1) UV-VIS hydrolysis, initial rates, Michaelis-Menten fit on AMZ-1

[2] = test system: CC1(C)S[C@@H]2[C@H](NC(=O)Cc3ccccc3)C(=O)N2[C@H]1C(=O)O; assay: as above; assay type: biochemical, Achromobacter mucicolens; conditions: 10 mM phosphate pH 7.0, 37°C
Excerpt: as §1

[3] = test system: CC1(C)S[C@@H]2[C@H](NC(=O)[C@H](N)c3ccc(O)cc3)C(=O)N2[C@H]1C(=O)O; assay: as above; assay type: biochemical, Achromobacter mucicolens; conditions: 10 mM phosphate pH 7.0, 37°C
Excerpt: as §1

[4] = test system: CO[C@@]1(NC(=O)Cc2cccs2)C(=O)N2C(C(=O)O)=C(COC(N)=O)CS[C@@H]21; assay: as above; assay type: biochemical, Achromobacter mucicolens; conditions: 10 mM phosphate pH 7.0, 37°C
Excerpt: as §1

Compound | IC50 (AMZ-1) [µM] | Km [1] [µM] | kcat [1] [s⁻¹] | kcat/Km [1] [M⁻¹ s⁻¹] | Km [2] [µM] | kcat [2] [s⁻¹] | kcat/Km [2] [M⁻¹ s⁻¹] | Km [3] [µM] | kcat [3] [s⁻¹] | kcat/Km [3] [M⁻¹ s⁻¹] | Km [4] [µM] | kcat [4] [s⁻¹] | kcat/Km [4] [M⁻¹ s⁻¹]
NC(=O)[C@@H]1CC[C@@H]2CN1C(=O)N2OS(=O)(=O)O [avibactam] | 0.00082 |  |  |  |  |  |  |  |  |  |  |  | 
C[C@]1(Cn2ccnn2)[C@H](C(=O)O)N2C(=O)C[C@H]2S1(=O)=O [tazobactam] | 1090 |  |  |  |  |  |  |  |  |  |  |  | 
AMZ-1 (Achromobacter mucicolens) |  | 564.23 ± 56.35 | 5.88 ± 0.39 | 10400 ± 40 | 108.84 ± 8.12 | 3.93 ± 0.13 | 36300 ± 150 | 14.65 ± 1.274 | 0.0947 ± 0.005 | 6780 ± 1650 | 18.16 ± 3.88 | 0.0805 ± 0.0137 | 4540 ± 660
